From the nanobody polyreactivity screen of Harvey et al. (2022)

Test: yeast display, Sf9 membrane polyspecificity reagent, FACS + sequencing; frameworks hold sequencing errors
Procedure, shortened: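 Using colony PCR, genes from sorted yeast display clones were amplified, then sequenced on MiSeq at 2 × 250 and filtered by CDR length. The clones had been stained with 10% biotinylated, detergent-solubilized Sf9 membrane reagent for 1 hour at 4 °C and sorted by FACS into low and high (top ~1%) gates on anti-HA and streptavidin fluorescence. Polyreactivity labels come from the gate of origin.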

Sequence | polyreactivity (PSR sort gate)
QVQLVESVGGLVQAGGSLRLSCAASGGMGWYRQAPGKERELVATISSVGSTNYADSVKGRFTISRDNAKNTVYLQMNSLKPEDTAVYYCNATGVQYFLYGYWGQGTQVTVSS | low polyreactivity
QVQLVESVGGLVQAGGSLRLSCAASGGTFQHYTMGWYRQAPGKERELVAAISLSGTRTYYADSVKGRFTISRDNAKNTVYLQMNSLKPEDTAVYYCAARYGVEYWGQGTQVTVSS | low polyreactivity
QVQLVESVGGLVQAGGSLRLSCAASGITFRWNAMGRYRQATGKERELVAAIRRSGRTYYADSVKGRFTISRDNAKNTVYLQMNSLKPEDTAVYYCAAVSGYRSSKYDYWGQGTQVTVSS | high polyreactivity
QVQLVESVGGLVQAGGSLRLSCAASGITFWKYTMGWYRQAPGKERELVAAITGRGGSTYYADSVKGRFTISRDNAKNTVYLQMNSLKPEDTAVYYCAADPYHLQTRFSGLAEFYYWGQGTQVTVSS | low polyreactivity
QVQLVESVGGLVQAGGSLRLSCAASGITFYKYAMGWYRQAPGKERELVASIDRVGITNYADSVKGRFTISRDNAKNTVYLQMNSLKPEDTAVFYCNADYYRYYSITYGGDYWGQGTQVTVSS | high polyreactivity
QVQLVESVGGLVQAGGSLRLSCAASGITFYWYAMGWYRQAPGKERELVASITGNGGGTSYADSVKGRFTISRDNAKNTVYLQMNSLKPEDTAVYYCNTSVGGKEYDSWGQGTQVTVSS | low polyreactivity
QVQLVESVGGLVQAGGSLRLSCAASGLIFFGNTMGWYRQAPGKDRELVAAISKRGTTYYADSVKGRFKISRDNAKNTVYLQMNSLKPEDTAVYYCAAGGTFFHRLDYYYRSDYWGQGTQVTVSS | high polyreactivity
QVQLVESVGGLVQAGGSLRLSCAASGLILRFYAMVWYRQAPGKERELVAAISRNGGSTYYADSVKGRFTISRDNAKNTVYLQMNSLKPEDTAVYYCAVEYYVSWKLDYWGQGTQVTVSS | high polyreactivity
QVQLVESVGGLVQAGGSLRLSCAASGRIFEVYVMGWYRQAPGKERELVAAISTGGSTYYADSVKGRFTISRDNAKNTVYLQMNSLKPEDTAVYYCAARKTRRYGSGHDYWGQGTQVTVSS | high polyreactivity
QVQLVESVGGLVQAGGSLRLSCAASGRIFHRYTMGWYRQAPGKEREFVAAITTRAGSTYYADSVKGRFTISRDNAKNTVYLQMNSLKPEDTAVYYCNIRRHSLYGGTTTRYDYWGQGTQVTVSS | high polyreactivity
QVQLVESVGGLVQAGGSLRLSCAASGRIFLVYVMGWYRQAPGKERELVAAISASDGSTYYADSVKGRFTISRDNAKNTVYLQMNSLKPEDTAVYYCAEWGYSLDSNSYRELNYWGQGTQVTVSS | low polyreactivity
QVQLVESVGGLVQAGGSLRLSCAASGRTFRTYTMGWYRQAPGKERGLVAAITSTGSTYYADSVKGRFTISRDNAKNTVYLQMNSLKPEDTAVYYCNVVRRLRPYRGTGPNLEYYYWGQGTQVTVSS | high polyreactivity
QVQLVESVGGLVQAGGSLRLSCAASGRTFRYYAMGWYRQAPGKERELVAAISKTGGSTYYADSVKGRFTISRDNAKNTVYLQMNSLKPEDTAVYYCAAQSGWGYSTYYYWGQGTQVTVSS | high polyreactivity
QVQLVESVGGLVQAGGSLRLSCAASGRTFVLNTMGWYRQAPGKERELVAAISKSGGSTYYADSVKGRFTISRDNAKNTVYLQMNSLKPEDTAVYYCAARTRQLEYNSWGEGTQVTVSS | high polyreactivity
QVQLVESVGGLVQAGGSLRLSCAASGRTFVVYAMGWYRQEPGKERELVAAIRVSDGSTYYADSEKGRFTISREISKNTVYLQMNSLNPEDTAVYYCNAESFRGFYYWGQGTQVTVSS | high polyreactivity
QVQLVESVGGLVQAGGSLRLSCAASGRTIRWYAMGWYRQAPGKERELVAAITFRGGRTYYADSVKGRFTISRDNEKNTVYLQMNSMKPEDTAVYYCNAVTYSSPYRFDYWGQGTQVTLSS | low polyreactivity
QVQLVESVGGLVQAGGSLRLSCAASGRTISRNAMGWYRQAPGKERELVAAISASGGRTYYADSVKGRFTISRDNAKNTVYLQMKSLKPEDTEVYFCAASTTGYRYYDYCGQGTQVTVSS | high polyreactivity
QVQLVESVGGLVQAGGSLRLSCAASGSIFEYYAMGWYRQAPGKERELVAAITRSGGSTYYADSVKGRFTISRDNAKNTVYLQMNSLKPEDTAVYYCAVRGYSSYTYDEYYVGYDYWGQGTQVTVSS | low polyreactivity
QVQLVESVGGLVQAGGSLRLSCAASGSIFRVYAMGWYRQAPGKERELVATISGSAGRTYYADSVKGRFTISRDNAKNTVYLQMNSLKPEDTAVYYCAARWYKEYYWGQGTQVTVSS | high polyreactivity
QVQLVESVGGLVQAGGSLRLSCAASGSIFSPYAMGWYRQAPGKERELVAGISRDGSTYYADSVKGRFTISRDNAKNTVYLQMNSMKPEDTAVYYCAATEFRYFEGGAYFEGYYWGQGTQVTVSS | low polyreactivity
QVQLVESVGGLVQAGGSLRLSCAASGSIFSRNAMGWYRQAPGKERELVAAIRSTVSTYYADSVKGRFTISRDNAKNTVYLQMNSLKPEDTAVYYCATVTHVSPNKYYYWGQGTQVTVSS | high polyreactivity
QVQLVESVGGLVQAGGSLRLSCAASGSIFYNYAMGWYRQAPGKERELVAAISSNGGSTYYADSVKGRFTISRDIAKNTVYLQMNSLKPEDTAVYYCAARYWYPYWYRYSAYDYWGQGTQVTVSS | high polyreactivity

Sequence | polyreactivity (PSR sort gate)
QVQLVESVGGLVQAGGSLRLSCAASGSIYRSYTMGWYRQAPRKEREFVAAITKRGGSTYYADSVKGRFTISRDNAKNTVYLQMISLKPEDTAVYYCAAVAGHYYYFRELGYWGQGTQVTVSS | high polyreactivity
QVQLVESVGGLVQAGGSLRLSCAASGSTFAGYAMGWYRQAPGKERELVAAISGGRTYYADSVKGRFTISRDNAKNTVYLQMNSLQPEDTAVYYCAKRYFYYTAYNAYGYWGQGTQVTVSS | high polyreactivity
QVQLVESVGGLVQAGGSLRLSCAASGSTFGTYAMGWYRQAPGKVSELVAAISNSGGSTYYADSVKGRFTISRDNAKNTVYLQMNSLKPEDTAVYYCNTDGLVRNGPFFSWGQGTQVTVSS | low polyreactivity
QVQLVESVGGLVQAGGSLRLSCAASGSTFGYNAMGWYRKAPGKERELVAGITSSGGSTYYADSVKGRFTISRDNAKNTVYLQMNSLKPEDTAVYYCAKAFYRHSSPNNSEYWGQGTQVTVSS | low polyreactivity
QVQLVESVGGLVQAGGSLRLSCAASGSTIGWNAMGWYRQAPGKERELVAAISSSGGSTNYADSVKGRFTISRDNAKNTVYLQMNCLKPEDTAVYYCAKGRRPGYGYGYWGHGTQVTVSS | low polyreactivity
QVQLVESVGGLVQAGGSLRLSCAASGSTSRFYDMGSYSQAPGKERELVAAITQSGGSTRYADSVKGRFTISRENAKNTVYLQLNSLKPEDTAVNYCAARVRGYSVTRTKPASIGGGSWGQGTQVTVSS | high polyreactivity
QVQLVESVGGLVQAGGSLRLSCAASGSTSYDYAMGWNRQAPGKERELVAAISGSSSTTYYADSVKGRFTISRDNAKNTVYLQMNSLKPEDTAVYYCNAVTTSGSGYGYWGQGTQVTVSS | low polyreactivity
QVQLVESVGGLVQAGGSLRLSCAASGVIFYFYTMGWSRQAPGKERELVAGITWSGDSTYYADSVKGRFTISRDNAKNTVYLQMNSLTPEDTAVYYCAAGFDFGTRVSKGYDYWGHGTQVTVSS | low polyreactivity
QVQLVESVGGLVQAGGSLRLSCAASVFIFRSYAMGWYRQAPGKERELVASISRRGASTYYADSVKGRFTISRDNAKNTVYLQMNSLKPEDTAVYYCNADGLRGFYTGAYDYDYWGQGTQVTVSS | high polyreactivity
QVQLVESVGGLVQAGGSLRLSCAASVNIFITNAMGWYRQAPGKERELVADISFSGGSTYYADSVKGRFTISRDTAKNTVYLQMNSLIPEDTAVYYCAARALASVSAHKYDYWGQGTQVTVSS | low polyreactivity
QVQLVESVGGLVQAGGSLRLSCAASVRTCRSNAMGWYRKAPGKEMEFVAAISISGTRTNYADSVKGRFTISRDNAKITVYLQMNSLKPEDTAVYYCARRYQIYDFFYHDLYDYWGQGTQVTVSS | low polyreactivity
QVQLVESVGGLVQAGGSLRLSCAATGRTFAWYALGWYRQAPGKERELVAAISSGGSTYYADSVKGRFTISRDNAKNTVYLQMNSLKPEDTAVYYCAAEWHYIYAYDYWGQGTQVTVSS | low polyreactivity
QVQLVESVGGLVQAGGSLRLSCADSGSIFAANAIGWFRQAPGKERELVAAISRSGNTYYADSVKGRFTISRDNAKNTVYLQMNSLKPEDTAVYYCAARRYAYGRTYGYWGQGTQVTVSS | high polyreactivity
QVQLVESVGGLVQAGGSLRLSCGASGSIFVANAMGWYIQAPGKEREFVAAITGSGGSTYYADSVKGRFTISRDNAKNTVYLQMNSLKPEDTAVYYCTGDYTVKFGYWGQGTQVTVSS | low polyreactivity
QVQLVESVGGLVQAGGSLRLSCPASGSIFKYNAMGWYRQSPGKERELVAAISSGGSTNYADSVKGRFTISRDNAKNTVYLQMNSLKPEDTAVYYCAKDRRRWYYTRDYWGQGTQVTVSS | low polyreactivity
QVQLVESVGGLVQAGGSLRLSCPASGSTFRRYAMGWYRQAPGKERELVAAITRGGITYYADSVKGRFTISRDNAKNTFYLQMNSLKPEDTAVYYCAATTFGPYALYPRYYYWGQGTQVTVSS | high polyreactivity
QVQLVESVGGLVQAGGSLRLSCTATGSNFGYNAMGSYRQAPGKEREFVAAISWRGGSTYYADSVKGRLTISRDYAKNTVYLQMNSLKPEDTAVYYCAAVPQGSKRGYYYWGQGTQVTVSS | high polyreactivity
QVQLVESVGGLVQAGGSLRLSSAASGITFQYYDMGWYRQAPGKERELVAAIDTSGGSTYYADSVKGRFTISRDNEKNTVYLHMNSLKREDTSVYYGAACYYGYSVYGRMYYWGQGTQVTVSS | low polyreactivity
QVQLVESVGGLVQAGGSLRLTCAASGFTFDKYAMGWYRQAPGKERELVAAISNSGGRTYYADSVKGRFTISRDNAKNTVYLQMNSLKPEDTAVYYCAAVALTRRYDYWGQGTQVTVSS | high polyreactivity
QVQLVESVGGLVQAGGSLRLTCAASGFTFGPYAMGCYRQAAGKERELVAAITNRGGSTYADSVKGRFTISRDNAKNTVYLQMNSLKPEDTAVYYCATVSALEYNYWGQGTQVTVSS | low polyreactivity
QVQLVESVGGLVQAGGSLSLSCAASGSTFKQYAMGWYRQAPGKERELVAAISSRGGSTHYADSVKGRFTISRDNAKYTVYLQMNSLKPEDTAVYYCARDTDPQYSRSSDYDYWGQGTQVTVSS | low polyreactivity
